From US20230279123A1
pEC50: −log10 of the molar value.

Assays:
[1] = molecular target: IL-4Rα (receptor protein / antigen) (UniProt P24394); test: competition ELISA: IL-4Rα coated, biotin-IL-4 at EC80 mixed with antibody dilutions, OD450; hIgG is the control, the fitted value may be meaningless
[2] = molecular target: IL-4Rα (on TF-1 cells) (UniProt P24394); test: cell-based or functional assay

| Substance | pEC50 [1] | EC50 of neutralizing IL-4-induced TF-1 cell proliferation [2] [nM] | EC50 of neutralizing IL-13-induced TF-1 cell proliferation [2] [nM] |
| --- | --- | --- | --- |
| hIgG (antibody) | 8.69 |  |  |
| dupilumab (antibody) |  | 0.13 | 0.178 |
